# Data taken from the supplement of paper PMC9112550, “Optimization of the antimicrobial peptide Bac7 by deep mutational scanning” (BMC Biology, 2022).
# Test system: Escherichia coli TOP10
# Test: shrunken log2 fold change of peptide-encoding DNA abundance (4.5 h post-induction vs induction); higher = less antimicrobial activity (less host growth inhibition)
# Details: time post-induction: 4.5 h; library: site-saturation at positions 5, 18, 19, 20
# 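Further: peptides expressed intracellularly from a pBAD plasmid library in pooled LB shake-flask culture, induced with 0.3% L-arabinose, DNA abundance read by NGS, three biological replicates, DESeq2 with apeglm shrinkage.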
row,Sequence,shrunken log2 fold change
1,RRIRFRPPRLPRPRPRPKNPPRP,-0.00149
2,RRIRGRPPRLPRPRPRPQFRPRP,0.0341
3,RRIRSRPPRLPRPRPRPAGSPRP,-0.209
4,RRIRWRPPRLPRPRPRPSLIPRP,-0.574
5,RRIRGRPPRLPRPRPRPSERPRP,0.278
6,RRIRMRPPRLPRPRPRPECYPRP,-0.192
7,RRIRTRPPRLPRPRPRPFMFPRP,-0.586
8,RRIRRRPPRLPRPRPRPQDPPRP,0.376
9,RRIRVRPPRLPRPRPRPTDRPRP,-0.00137
10,RRIRCRPPRLPRPRPRPLRGPRP,0.835
11,RRIRFRPPRLPRPRPRPHMEPRP,-0.405
12,RRIRTRPPRLPRPRPRPHRHPRP,-0.211
13,RRIRVRPPRLPRPRPRPIFYPRP,-0.378
14,RRIRHRPPRLPRPRPRPKANPRP,0.174
15,RRIRFRPPRLPRPRPRPNTNPRP,-0.622
16,RRIRFRPPRLPRPRPRPVIEPRP,-0.161
17,RRIRHRPPRLPRPRPRPECFPRP,-0.0176
18,RRIRYRPPRLPRPRPRPPVMPRP,-0.355
19,RRIRCRPPRLPRPRPRPMDRPRP,-0.0115
20,RRIRCRPPRLPRPRPRPRIDPRP,0.117
21,RRIRIRPPRLPRPRPRPTDAPRP,-0.0317
22,RRIRERPPRLPRPRPRPWTGPRP,-0.00968

row,Sequence,shrunken log2 fold change
1,RRIRKRPPRLPRPRPRPRSKPRP,0.254
2,RRIRERPPRLPRPRPRPDCVPRP,-0.191
3,RRIRGRPPRLPRPRPRPWMAPRP,0.439
4,RRIRNRPPRLPRPRPRPPAMPRP,0.124
5,RRIRPRPPRLPRPRPRPAQFPRP,0.272
6,RRIRARPPRLPRPRPRPFFWPRP,0.321
7,RRIRNRPPRLPRPRPRPEAFPRP,0.0792
8,RRIRVRPPRLPRPRPRPIQQPRP,0.00847
9,RRIRIRPPRLPRPRPRPNMNPRP,-0.773
10,RRIRIRPPRLPRPRPRPAMGPRP,1.17
11,RRIRFRPPRLPRPRPRPLCPPRP,0.016
12,RRIRARPPRLPRPRPRPEYSPRP,0.0132
13,RRIRQRPPRLPRPRPRPANSPRP,-0.0568
14,RRIRARPPRLPRPRPRPHSKPRP,-0.154
15,RRIRIRPPRLPRPRPRPICMPRP,-0.407
16,RRIRQRPPRLPRPRPRPREKPRP,0.158
17,RRIRYRPPRLPRPRPRPFFMPRP,-0.71
18,RRIRIRPPRLPRPRPRPIMFPRP,-0.314
19,RRIRDRPPRLPRPRPRPELPPRP,0.302
20,RRIRVRPPRLPRPRPRPDGPPRP,0.0955
21,RRIRDRPPRLPRPRPRPNCVPRP,0.0238
22,RRIRVRPPRLPRPRPRPCYMPRP,0.155

row,Sequence,shrunken log2 fold change
1,RRIRFRPPRLPRPRPRPTWNPRP,-0.166
2,RRIRYRPPRLPRPRPRPHCTPRP,-0.372
3,RRIRVRPPRLPRPRPRPCDMPRP,-0.448
4,RRIRTRPPRLPRPRPRPQFVPRP,-0.127
5,RRIRHRPPRLPRPRPRPIMQPRP,-0.228
6,RRIRDRPPRLPRPRPRPWFVPRP,-0.18
7,RRIRTRPPRLPRPRPRPRMTPRP,0.146
8,RRIRGRPPRLPRPRPRPNHYPRP,-0.416
9,RRIRDRPPRLPRPRPRPPPQPRP,0.775
10,RRIRVRPPRLPRPRPRPLNTPRP,-0.224
11,RRIRNRPPRLPRPRPRPGHQPRP,-0.0155
12,RRIRQRPPRLPRPRPRPMQMPRP,0.0303
13,RRIRSRPPRLPRPRPRPHYSPRP,-0.596
14,RRIRLRPPRLPRPRPRPMYDPRP,-0.787
15,RRIRFRPPRLPRPRPRPADNPRP,0.0503
16,RRIRMRPPRLPRPRPRPGWCPRP,0.181
17,RRIRHRPPRLPRPRPRPRPEPRP,-0.165
18,RRIRPRPPRLPRPRPRPRPIPRP,0.27
19,RRIRRRPPRLPRPRPRPDACPRP,0.00716
20,RRIRDRPPRLPRPRPRPHYMPRP,-0.231
21,RRIRDRPPRLPRPRPRPFWSPRP,0.000201
22,RRIRMRPPRLPRPRPRPCMWPRP,0.138

row,Sequence,shrunken log2 fold change
1,RRIRDRPPRLPRPRPRPSSIPRP,0.0533
2,RRIRCRPPRLPRPRPRPAVHPRP,0.0826
3,RRIRVRPPRLPRPRPRPKTIPRP,-0.26
4,RRIRLRPPRLPRPRPRPVHFPRP,-0.272
5,RRIRCRPPRLPRPRPRPAHVPRP,0.019
6,RRIRARPPRLPRPRPRPEMQPRP,1.66
7,RRIRWRPPRLPRPRPRPPDYPRP,0.184
8,RRIRRRPPRLPRPRPRPYHHPRP,-0.471
9,RRIRFRPPRLPRPRPRPKLFPRP,-0.0554
10,RRIRGRPPRLPRPRPRPRTHPRP,0.666
11,RRIRDRPPRLPRPRPRPFQGPRP,-0.181
12,RRIRKRPPRLPRPRPRPEVLPRP,1.57
13,RRIRERPPRLPRPRPRPTSMPRP,-0.713
14,RRIRKRPPRLPRPRPRPTQPPRP,0.606
15,RRIRFRPPRLPRPRPRPPIKPRP,0.0125
16,RRIRYRPPRLPRPRPRPLAFPRP,-0.827
17,RRIRVRPPRLPRPRPRPEGLPRP,0.0931
18,RRIRTRPPRLPRPRPRPYPHPRP,0.0321
19,RRIRGRPPRLPRPRPRPHQSPRP,0.12
20,RRIRIRPPRLPRPRPRPIRFPRP,-1.35
21,RRIRQRPPRLPRPRPRPIGVPRP,-0.00783
22,RRIRQRPPRLPRPRPRPHMCPRP,-0.0238

row,Sequence,shrunken log2 fold change
1,RRIRLRPPRLPRPRPRPHSLPRP,0.0368
2,RRIRARPPRLPRPRPRPCDMPRP,0.208
3,RRIRHRPPRLPRPRPRPEQFPRP,0.000995
4,RRIRMRPPRLPRPRPRPLVFPRP,0.102
5,RRIRHRPPRLPRPRPRPMFRPRP,-0.422
6,RRIRKRPPRLPRPRPRPTSMPRP,0.508
7,RRIRYRPPRLPRPRPRPNRMPRP,-0.22
8,RRIRSRPPRLPRPRPRPTTTPRP,0.0739
9,RRIRKRPPRLPRPRPRPGHGPRP,0.16
10,RRIRFRPPRLPRPRPRPYEVPRP,-0.12
11,RRIRPRPPRLPRPRPRPMRKPRP,0.365
12,RRIRCRPPRLPRPRPRPGFVPRP,0.528
13,RRIRDRPPRLPRPRPRPVSCPRP,0.342
14,RRIRWRPPRLPRPRPRPPHHPRP,0.214
15,RRIRHRPPRLPRPRPRPAACPRP,0.066
16,RRIRRRPPRLPRPRPRPIPYPRP,-0.16
17,RRIRQRPPRLPRPRPRPIAPPRP,4.03
18,RRIRSRPPRLPRPRPRPHDMPRP,-0.335
19,RRIRERPPRLPRPRPRPNADPRP,-0.0389
20,RRIRARPPRLPRPRPRPFNDPRP,-0.147
21,RRIRLRPPRLPRPRPRPVIYPRP,-0.224
